In the nanobody polyreactivity screen of Harvey et al. (2022):

Test: yeast display, Sf9 membrane polyspecificity reagent, FACS + sequencing; frameworks hold sequencing errors
Procedure, shortened: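 Using colony PCR, genes from sorted yeast display clones were amplified, then sequenced on MiSeq at 2 × 250 and filtered by CDR length. The clones had been stained with 10% biotinylated, detergent-solubilized Sf9 membrane reagent for 1 hour at 4 °C and sorted by FACS into low and high (top ~1%) gates on anti-HA and streptavidin fluorescence. Polyreactivity labels come from the gate of origin.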

| Sequence | polyreactivity (PSR sort gate) |
| --- | --- |
| QVQRVESGGGLVQAGGSLRLSCAASGSTFYAYAMGWYRQSPGKERELVATITWSGGSTFYADSVKGRFTISRDNAKNTVYLQMNSLKPEDTAVYYCAARSRFPTIADGDYWGQGTQVTVSS | low polyreactivity |
| QVQRVESGGGLVQAGGSLRLSCAASGSTFYDNTMGWYRPAPGKERELVAAITGTGGNTYYADSVKGRFTISRDNAKNTDYLQMNSLKPEDTAVYYWNRVPVYYYRYGYWGQGTQVTVSS | low polyreactivity |
| QVQRVESGGGLVQAGGSLRLSCAASGSTLVYNDMGWYRPAPGKEREFVAAIRSNDGSTYYADSVKGRFTISRDNAKNTVYLQMNSLKPEDTAVYYCNKDVWDGYDWPEFDYSGQGTQVTVSS | low polyreactivity |
| QVQRVESGGGLVQAGGSLRLSCAPSAIIIYYYAMGCYRQAPGNEMELVAGISYSGGSTYADSVKGRLTISRDNAKNTVYLQMNSLKPEDTAVYFCAADYDYGGHWYDYWGQGTQVTVSS | low polyreactivity |
| QVQRVESGGGLVQAGGSLRLSCAPSGRTFGYYAMGWYRQAPGKERELVAAISRGGRTNYADSVKGRFTISRDNAKNTVYLQMNSLQPEDTAVYYCAKSGTIPRYTASYSLLDYWGQGTQVTVSS | low polyreactivity |
| QVQRVESGGGLVQAGGSLRLSCPASGSTLYGYAMGWYRPSPGKERELVAGITRGGSTSYADSEKGRFTISRDNAKNTVYLQMNSLKPEDTAVYYCAARSYPGSPVRYDYWGQGTQVTVSS | high polyreactivity |
| QVQRVESGGGLVQAGGSLRLSFAAAGGILYPYAMGWYRQAPGKERELVAAITSSGSTYYADSVKGRFTISRDNAKITVYLQMNSLNPEDHAVYYCAITLPTRNKLRSGREYDYWGQGTQVTVSS | low polyreactivity |
| QVQRVESGGGLVQAGGSLRLSSAASGPIYGDYAMGWYRQEPGKERELVADITWSGGSTYYADSVKGRFTISRDNAKNTVYLQMNSLKPEDTAVYYCNADVWFYYTFDYWGLGTQVTVSS | low polyreactivity |
| QVQRVESGGGLVQAGGSLRLSSAASGSIFFDYAMRGYRQAPGNERELVAAISGSGGSRYYADSVKGRFTISRDNAKNTVYLQMNSLIPEDTAVYYCAAGYKYFRIRYDYWGQGTQVTVSS | high polyreactivity |
| QVQRVESGGGLVQAGVSLRLSCASSGITFDVNALGWYRQAPGKERELVAAITAGGNTYYADSVKGRFTISRDKAKTTVYLQMNSLKPEETAVYYCAAVSTSLYWAGYDYWGQGTQVTVSS | low polyreactivity |
| QVQRVESGGGLVQARGSLRLSCAASGLIFPPNVMGWYRQAPGKESEFVAAITSSGSTNYADSVKGRFTISRDNAKYTVYIQMNSLKPEDTAVYYCARDQTWSYQPWYYLSYPQYEYWGQGTEVTVSS | low polyreactivity |
| QVQRVESGGGLVQAVGSLRLSCPASGIISVCNARGWYRQAPGKERELVASINSGGSTNYADSVKGRFTISRDNAKNTVYLQMNSLKPEDTAVYYCARLHDIRSPYSGTPVRDLPDEDDYWGQGTQVTVSS | low polyreactivity |
| QVQRVESGGRLVPPGGSLRLSCAASGRIFYTNAMGCYRQAPGKERELVARITGAGNTYYADSVKGRFTISRDNAKNTVYLQLNSLKPEDTAVYYCTADLYWRGDYWGQGTQVTVSS | high polyreactivity |
| QVQRVESRGVLVQAGGTLRLSCAASGISFGRNTMGWYRQAPLKERELVATIRSGTNYADSVKGRFTISRDNAKNTVDLQMNSLKPDDTAVDYCAVRYFGGRRSYYWGQGSQVTVSS | high polyreactivity |
| QVQRVESVGGLVQAGGSLRLICAASGRIFQVNAIGWYRQAPGKERELVAAITYSGGTTYYADSVKGRFTISRDNAKNTVYLQMNSLKPEDTAVYYCAAEGYGALGDPWQYGYEYWGQGTQVTVSS | low polyreactivity |
| QVQRVETAGRLVQARGSLRLSCAPSGIIFKRNAIGWYRQAPGKEREFVAAISSSGDTTYYADSVKGRFTISRDNAKNTVYLQMNSLKPEDTAVYYCAKPIRTSRARGMYYWGQGTEVTVSS | high polyreactivity |
| QVQRVVSGGGLVQAGGSLRLSCAASGSIFQGNAMGWYRQAPGQERELVAAIHRSDGRTYYADSVKGRFTISRDNAKNTVYLQMNSLKPEDTAVYYCKVDVLLVHDYVFYSWMDYWGQGSQVTVSS | high polyreactivity |
| QVQVEDTGGGLVQEGGSHRLSCAASGRTFYYYTMGRYRQPPVKEREFVAAITISGARTYYADSVKGRFTISRDNAKNTVYLQMNSLKPEDTPVYYCAARRRYRSRVTTVGYNYWGQGTQVTVSS | high polyreactivity |
| QVQVESGGGLVQAGGSLRLSCAASGSIIDQYVMGWYRQAPGKERELVAAISRGGRTYYADSVKGRFTISRDNAKNTVYLQMNSLKPEDTAVYYCAARSDVRGFDYWGQGTQVTVSS | low polyreactivity |
| QVQVVESGAGLVQAGGSLRISCAASGRNFVANAMGWYRQAPGKERELVAAISIIGAGTYYADSVKGRFTISRDNAKITVYLQMNSLKPEDTAVYYCATQYGWYIFGYWGQGSQVTVSS | high polyreactivity |
| QVQVVESGGALVQAGGSLRLSCAASGRIFSPYAMGWYRQAPGKESELVAAITSASSTYYADSVKGRFTISRDNAKNTVYLEMNRLKPEDTAVYYCAASYWRYGSAFDYWGQGTQVTVSS | high polyreactivity |
| QVQVVESGGGILQAGGSLRLSCAASGSIFYTNAMGWYRQAPGKERELVAAINLRDTGTYYADSVKGRFTISRDNAKNTVYLQMNSLNPDDTAVYYCAVDVYSRRTRIRYDSWGHGTQVTVSS | low polyreactivity |
| QVQVVESGGGIVQAGGSLRLSCAASGFIFNGNAMGWYRQAPGKERELVAADSVKGRFTISRDNAKNSVYLQMNRLKPEDTAVYYCATEFWQASDYDYWGHGTQVTVSS | low polyreactivity |
| QVQVVESGGGLDNAGGSLGLSCAASGSIFYYNAMGWYRQAPGKERELVAAISSSGGSTYYADSVKGRFTISRDNAKNTVYLQMNSLKPEDTAVYYCAAKLRHWAHHTKYDYWGQGTQVTVSS | low polyreactivity |
| QVQVVESGGGLVQAGGSLRLICAASGSTSWSYAMGWYRQAPGKERELVAAITRTGSTNYADSVKGRFTISRDNAKNTVYLQMNSLKPEDTAVYYCVYATLRYDYWGQGTQVTVSS | low polyreactivity |
| QVQVVESGGGLVQAGGSLRLSCAASGFIFRTYTMGWYRQAPGKERELVAAISYRGSSTYYADSVKGRFTISRDNAKNTVYFLMNSLKPEDTADYYCAAQLYGHRGYYWGQGTQVTVSS | high polyreactivity |
| QVQVVESGGGLVQAGGSLRLSCAASGFIIKDNAMGWYRQAPGKERELVAAITASGGRTYYADSVKGRFTISRDNAKNTVYLQMNSLKPEDTAVYYCAKRVKRPSESYNYNYYYWGQGTQVTVSS | high polyreactivity |
| QVQVVESGGGLVQAGGSLRLSCAASGRIYQYYDMGWYRQAPGKERELVATITSGGSTNYADSVKGRFTISRDNAKNTVYLQMNSLKPEDTAVYYCAALAYTASDYQPYDATEYNYWGQGTQVTVSS | low polyreactivity |
| QVQVVESGGGLVQAGGSLRLSCAASGRTFTRYAMGWYRQAPGKERELVATITRGGSTNYADSVKGRFTISRDNAKNTVYLQMNSLKPEDTAVYYCAAGYFIRTRSRYRYDYWGQGTQVTVSS | high polyreactivity |
| QVQVVESGGGLVQAGGSLRLSCAASGSFFTRYAIGWYRQAPGKERELVAAISGSGGSTYYADSVKGLFTISRDNAKITVSLQMNSLKPEDTAVYYCAARDYWGQGTQVTVSS | high polyreactivity |
